We go through 3 substances from publication PMC4399817.

For assay [1], the target named is HLA-B27.C101S, C-terminally Sv5 tagged misfolding mutant of HLA-B*27:05 (human). The assay can be described thus: non-reducing SDS-PAGE and immunoblot. For orientation: A western blot detects proteins with antibodies after separation by electrophoresis.
In assay [2] the target is HLA-B27.C164S, C-terminally Sv5 tagged misfolding mutant of HLA-B*27:05 (human). The assay can be described thus: non-reducing SDS-PAGE and immunoblot.
Assay [3] addresses HLA-B*27:05 heavy chain, carboxy terminally Sv5 tagged, stably expressed in isogenic HeLa cells (HeLa-B27.Sv5) (human). The assay can be described thus: pulse chase, immunoprecipitation and non-reducing SDS-PAGE.

The term stoichiometry N denotes the number of molecules, sites or subunits per partner or assembly.

In turn, “HLA-B27.C101S, C-terminally Sv5 tagged misfolding mutant of HLA-B*27:05 (natural protein)” had a stoichiometry N in assay [1] of 2. Regarding “HLA-B27.C164S, C-terminally Sv5 tagged misfolding mutant of HLA-B*27:05 (natural protein)”, the stoichiometry N in assay [2] was determined as 2. “HLA-B*27:05 heavy chain, carboxy terminally Sv5 tagged, stably expressed in isogenic HeLa cells (HeLa-B27.Sv5) (natural protein)” gave a stoichiometry N in assay [3] of 2.
